Test results taken from US20230181772A1 (CITY OF HOPE, published 2023).
Changes are numbered by the printed parent chain. Names and notes keep the numbering of the source.

T1: recombinant human PSCA-mouseFc fusion protein (human, UniProt O43653 12-83, limits assumed)
T1 construct: also called hPSCA-mFc; Recombinant human PSCA mouse Fc fusion protein (UCLA); not shown: mouse Fc
T1 sequence: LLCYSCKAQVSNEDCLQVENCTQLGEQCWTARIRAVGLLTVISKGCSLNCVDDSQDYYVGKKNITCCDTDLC

T2: human prostate stem cell antigen (PSCA) on the cell surface (human, UniProt O43653 12-83)
T2 construct: Expressed on transduced cell lines (22Rv1-hPSCA, RM9-hPSCA, KPC-hPSCA) or endogenously on Capan-1; also called hPSCA; 22Rv1-PSCA
T2 sequence: T1 sequence

B1: A2scFv-Fc2 (Fc fusion)
chain: EVQLVESGGGLVQPGGSLRLSCAASGFNIKDYYIHWVRQAPGKGLEWVAWIDPEYGDSEFVPKFQGRATMSADTSKNTAYLQMNSLRAEDTAVYYCKTGGFWGRGTLVTVSSGGGGSGGGGSGGSAQDIQLTQSPSSLSASVGDRVTITCSASSSVRFIHWYQQKPGKAPKRLIYDTSKLASGVPSRFSGSGSGTDFTLTISSLQPEDFATYYCQQWGSSPFTFGQGTKVEIKVECPPCPAPPVAGPSVFLFPPKPKDTLMISRTPEVTCVVVDVSHEDPEVQFNWYVDGMEVHNAKTKPREEQFNSTFRVVSVLTVVHQDWLNGKEYKCKVSNKGLPAPIEKTISKTKGQPREPQVYTLPPSREEMTKNQVSLTCLVKGFYPSDIAVEWESNGQPENNYKTTPPMLDSDGSFFLYSKLTVDKSRWQQGNVFSCSVMHEALHNHYTQKSLSLSPGK
notes: Homodimer of two scFv-Fc peptides: anti-PSCA A2 VH-VL scFv with a (G4S)2-GGSAQ linker, truncated human IgG2 hinge and Fc; Made in FreeStyle 293-F cells, glycosylated at Asn-297; also called anti-PSCA scFv-Fc2
B2: A2scFv-Fc2DM (Fc fusion)
chain: B1 chain with H319A, H444Q
notes: Homodimer; also called A2scFv-FcDM; double mutant

Key:
[1] = target: T1, recombinant human PSCA-mouseFc fusion …; assay: saturation binding ELISA on immobilized hPSCA-mFc (1 ug/mL), half-maximal binding, one-site specific binding fit, 3 experiments
Protocol: Western Blot was also used to test antigen specificity. Recombinant human PSCA mouse Fc fusion protein (UCLA) was blotted and anti-PSCA scFv-Fc variants were tested for binding. Specificity and affinity of antigen binding was further evaluated by performing saturation binding on immobilized antigen in ELISA. Specific binding was fitted using the “one site-specific binding” equation to determine the Kd (ligand concentration that binds half the antigen sites at equilibrium) and Bmax (maximum number of binding sites).
Saturation binding of the anti-PSCA scFv-Fc fragments was tested in ELISA in 3 independent experiments with duplicates. Binding of serial dilutions (1 μM-[…]) of A2scFv-Fc2 and A2scFv-Fc2DM to immobilized recombinant hPSCA-m Fc (1 μg/mL) was specific and dose-dependent (FIG. 6).

[2] = target: T3, BSA (UniProt P02769 25-607); assay: ELISA, control wells blocked with BSA
T3 construct: Negative control coating in the ELISA; also called BSA coated wells
T3 sequence (P02769 25-607 limits assumed): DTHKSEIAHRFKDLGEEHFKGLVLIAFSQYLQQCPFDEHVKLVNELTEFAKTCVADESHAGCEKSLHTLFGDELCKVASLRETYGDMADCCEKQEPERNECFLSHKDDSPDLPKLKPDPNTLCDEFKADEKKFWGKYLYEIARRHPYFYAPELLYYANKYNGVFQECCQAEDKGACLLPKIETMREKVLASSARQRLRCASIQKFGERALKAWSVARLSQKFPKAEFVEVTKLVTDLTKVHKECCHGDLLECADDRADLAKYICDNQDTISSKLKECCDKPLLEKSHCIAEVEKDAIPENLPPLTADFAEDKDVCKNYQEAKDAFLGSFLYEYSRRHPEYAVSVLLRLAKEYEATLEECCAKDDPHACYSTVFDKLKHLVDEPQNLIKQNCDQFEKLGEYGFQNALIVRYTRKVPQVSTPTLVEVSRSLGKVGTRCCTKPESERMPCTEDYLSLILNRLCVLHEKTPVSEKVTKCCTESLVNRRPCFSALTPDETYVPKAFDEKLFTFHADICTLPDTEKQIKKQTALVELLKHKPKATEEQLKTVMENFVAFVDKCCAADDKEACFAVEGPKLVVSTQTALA
Protocol: For further confirmation of specific antigen binding ELISA was used to detect binding of A2scFv-Fc2 and A2scFv-Fc2DM to immobilized antigen hPSCA-mFc (FIG. 5). Different concentrations of hPSCA-mFc were coated (1, 3 and 5 μg/mL in PBS, 100 μL/well) overnight, control wells were blocked with BSA. Presence of immobilized antigen was detected using goat anti-mouseFc-AP. […] No nonspecific binding to BSA coated wells was detected.

[3] = target: T2, human prostate stem cell antigen (PSCA) …; assay: flow cytometry titration on PSCA-expressing cells, apparent on-cell affinity (half-maximal binding)
Protocol: The capability of the anti-PSCA antibody fragments to bind to PSCA expressed on the cell surface was analyzed by flow cytometry. Antigen specificity was confirmed using PSCA-positive and negative cell lines. In this assay binding was only seen with 22Rv1-PSCA cells but not with 22Rv1 (FIG. 9A). […] Binding to murine cell lines transduced to express human PSCA and the human pancreatic cancer cell line Capan-1 was also confirmed using the A2scFv-Fc2 (FIG. 9C).

Row | Binder | Kd [1] [nM] | binding result [2] | Kd [3] [nM]
1 | B1 | 0.5 | no binding | 1.2
2 | B2 | 0.8 | no binding | 0.65
